According to paper PMC9695703, “Selection of an Aptamer against the Enzyme 1-deoxy-D-xylulose-5-phosphate Reductoisomerase from Plasmodium falciparum”:

Key:
EcDXR-6His = target: T1, EcDXR-6His (Escherichia coli, UniProt P45568 1-398); test: bead-based flow cytometry saturation binding; protein on latex beads; Bmax 1.67; Kd: PBS pH 7.4, 60 min, dark, 0.3-5.4 uM aptamer; EMSA: 10 mM NaCl, 0.02% Tween-20, 50 mM HEPES pH 8.0, RT 60 min, 2% agarose 0.5x TB; conditions: protein: recombinant; tags: C-term 6xHis; label: 5' 6FAM; folded 90/5/37 C before use
T1 sequence: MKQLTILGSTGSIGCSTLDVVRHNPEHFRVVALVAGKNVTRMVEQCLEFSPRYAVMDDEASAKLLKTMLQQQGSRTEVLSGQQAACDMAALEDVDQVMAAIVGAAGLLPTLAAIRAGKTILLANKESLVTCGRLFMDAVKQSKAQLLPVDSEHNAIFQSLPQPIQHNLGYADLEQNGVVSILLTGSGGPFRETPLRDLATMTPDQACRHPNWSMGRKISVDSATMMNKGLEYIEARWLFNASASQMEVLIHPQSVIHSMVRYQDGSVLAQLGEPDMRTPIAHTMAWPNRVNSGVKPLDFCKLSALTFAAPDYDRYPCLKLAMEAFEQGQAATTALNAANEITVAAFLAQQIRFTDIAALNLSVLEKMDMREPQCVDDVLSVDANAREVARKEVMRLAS

[1] = target: T2, 6His-GST-PfDXRt-6His (1-deoxy-D-xylulose-5-phosphate reductoisomerase) (Plasmodium falciparum, UniProt Q8IKG4 73-488); test: bead-based flow cytometry saturation binding; protein on latex beads; Bmax 0.79; conditions: protein: recombinant; tags: N-term 6xHis-GST, C-term 6xHis; label: 5' 6FAM; folded 90/5/37 C before use
T2 sequence: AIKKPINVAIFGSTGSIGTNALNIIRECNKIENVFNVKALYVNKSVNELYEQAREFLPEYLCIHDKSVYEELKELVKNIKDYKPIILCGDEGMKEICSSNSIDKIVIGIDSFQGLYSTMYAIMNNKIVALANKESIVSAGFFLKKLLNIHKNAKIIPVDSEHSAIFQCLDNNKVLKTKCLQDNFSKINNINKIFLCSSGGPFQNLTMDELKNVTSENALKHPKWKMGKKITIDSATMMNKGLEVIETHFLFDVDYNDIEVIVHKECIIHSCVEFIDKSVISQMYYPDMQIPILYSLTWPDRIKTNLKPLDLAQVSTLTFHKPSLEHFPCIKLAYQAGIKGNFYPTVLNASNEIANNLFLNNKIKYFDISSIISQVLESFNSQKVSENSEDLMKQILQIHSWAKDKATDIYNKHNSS

B1: 6FAM-D10 (ssDNA)
DNA: ATACCAGCTTATTCAATTCACTGCCACACCACGCCCTGCCATCCGCACATCCATCGTGAGATAGTAAGTGCAATCT
Kd (EcDXR-6His): 290 ± 90 nM
Kd [1]: 260 ± 70 nM
